Target: human NKG2A (human, UniProt P26715 94-233, limits assumed)
Assay: not stated; drawn table 'Binding affinity of anti-NKG2A scFv to human NKG2A', column 'Binding affinity, KD (M)'

Chain of human NKG2A (P26715 94-233 limits assumed): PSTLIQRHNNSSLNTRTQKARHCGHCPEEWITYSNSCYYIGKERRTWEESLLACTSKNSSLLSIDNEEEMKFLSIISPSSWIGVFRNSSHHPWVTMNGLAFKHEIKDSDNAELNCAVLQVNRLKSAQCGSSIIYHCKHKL

Kd: 0.0665 nM
B1: murine anti-NKG2A scFv (scFv)
scFv: QVQLQQPGAELVRPGASVKLSCKASGYTFTSYWMNWVKQRPEQGLQWIGRIDPYDSETHYSQKFKDKAILTVDKSSSTAYMRLSSLTSEDSAVYYCARGGYDFDVGTLYWFFDVWGAGTTVTVSSGGSTRSSSSGGGGSGGGGDIQMTQSPASLSASVGETVTITCRASENIYSYLAWYQQKQGKSPQFLVYNAKTLAEGVPSRFSGSGSGTQFSLKINSLQPEDFGSYYCQHHYGTPRTFGGGTKLEIKAAAHHHHHHHH
notes: Derived from the VH and VL of murine antibody Z270 (U.S. Pat. No. 9,683,041), expressed in Hi5 cells, purified on Ni-NTA; also called αNKG2A-scFv

Source: patent US20230374161A1 (Stanford University, published 2023)
